± gives the uncertainty stated by the source.

The nature of the data set: amyloid nucleation score (Sup35N fusion, yeast selection) (log enrichment); library NNK3; higher = more nucleation; inactive = no reads after selection. Summed up: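 Peptides of 20 random codons fused to Sup35N were expressed in psi-negative yeast, induced 24 hours with 100 μM copper sulfate, then grown 7 days at 30°C on medium lacking adenine and uracil. Input and output plasmid inserts were Illumina-sequenced. Nucleation score is the DiMSum log enrichment of output over input reads, centred on the mode score of non-aggregating sequences, excluding sequences with under 100 input reads. Random libraries had three technical output replicates.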

In the case of ILSSKSTNENVSYFLLKM, the amyloid nucleation score amounted to 0.794 ± 0.099. Take FKRCSSIVRGWSS: the amyloid nucleation score result was “inactive”. For YQCFVKELYKECISHWARRK, the amyloid nucleation score result was “inactive”.

YLNPAFELFKRMSNRFFVLA yielded an amyloid nucleation score of -1.02 ± 1.9.

RASTISLGKLVQLYLYSRRL gave an amyloid nucleation score of 0.468 ± 0.3.

Consider LEYAYSELNSSVSTLSSFE, for which the amyloid nucleation score result is “inactive”. On to EFQNFLVSFYEMYLQSPK, for which the amyloid nucleation score result was “inactive”. As to FMLNVVDY, the amyloid nucleation score entry is “inactive”. With YMNSTFQMFD, the amyloid nucleation score amounted to 0.829 ± 0.19.

In the case of LHPCEYALM, the amyloid nucleation score was -1.4 ± 2.5. Turning to WGFRRT, the amyloid nucleation score result was “inactive”. On to RPFNRTYHILLYQMHYVRST, for which the amyloid nucleation score entry is “inactive”. On to RKYTKCSFRKKSWCPSPFEL, for which the amyloid nucleation score entry was “inactive”. For CTSGLVVGLVFLMI, the amyloid nucleation score is -0.716 ± 1.4. As for VFSKSLGI, the amyloid nucleation score entry was “inactive”. As to RSLCQQYQRFSSLRKVIGLS, the amyloid nucleation score result is “inactive”. Substance SNYFTFYLFNVRGIWGFADC had an amyloid nucleation score of 2.56 ± 0.07. As to VCSFCCFGTVRSL, the amyloid nucleation score was 2.1 ± 0.058. For FANSY, the amyloid nucleation score entry was “inactive”.

Regarding GVFAIGANLQANVGNDRAYT, the amyloid nucleation score entry was “inactive”. The substance ICSLCEHSFVRVNGMYWHRE returned an amyloid nucleation score of 2.02 ± 0.092. With HFILVNIAFLVTDPHWLVRV, the amyloid nucleation score entry is “inactive”. Consider PIAFQRKSSCIKSRESGSVR, for which the amyloid nucleation score entry is “inactive”. Then YSRSQTMSTACNVVYVFSGQ, with “inactive”; and LEVHIFKDPEY, with “inactive”; and NSIFSVFIGMMPCLGSMENI, with 3.1 ± 0.081. Consider LSSFIFCFSLYAVLTMGVVH, for which the amyloid nucleation score result is “inactive”. Then QRFFRCIRSRSWTFTSGVIV, with “inactive”; and LNDDLCSRVFWVYEYHECQV, with “inactive”; and INNLFTRVSSIRFCVRS, with “inactive”. On to NIIYRVGSQYSL, for which the amyloid nucleation score entry was “inactive”. With NWRQNEPYSPGSKSLGWHSF the entry was “inactive”; with FMMMYDCNLDCFRHSIEI, “inactive”; with MRMTTYSGIRVGIIERIMIN, “inactive”.

With FTMASLRIKDIFWLLTNLTW, the amyloid nucleation score result was “inactive”.

Turning to LVVVECSSLMRADLCSTQVM, the amyloid nucleation score result is “inactive”. For SNAMMGSRRIGLMGYAVRVL, the amyloid nucleation score entry was “inactive”. For VGGYI, the amyloid nucleation score result was “inactive”. For the substance LRGMDYVCDEPLYVTLWVNR, the amyloid nucleation score result was “inactive”. With FSQIPRYISNTKRWLWDYVN, the amyloid nucleation score entry is “inactive”.

GLTFCATRCRDWLEGWQY: the amyloid nucleation score result was “inactive”. With KRFTLFSMIYGRV, the amyloid nucleation score result is “inactive”. On to DIEMY, for which the amyloid nucleation score entry is “inactive”. With LWRKMVVPYFYP, the amyloid nucleation score result is “inactive”. On to VFWLKVSVSLFPVLYGRS, for which the amyloid nucleation score entry is “inactive”. Then FSPVSQYWMKGFTYTGNRAR, with “inactive”.

Take YVVVLMSLHWRNWGALRRTC: the amyloid nucleation score result is “inactive”. IVSCTCDRMADLGST: the amyloid nucleation score entry was “inactive”. CFSLGVCGQAKVNVWNNIYV had an amyloid nucleation score of 2.71 ± 0.054. AGRDIIMYNRAWFNISAA: the amyloid nucleation score result was “inactive”. Then YKFFGDLKVAYFGKVKIE, with “inactive”; and TSLGNGVSHGTLGFILTVNT, with “inactive”; and LAVVNYQSFTNVEWVGNRIK, with “inactive”. Substance AILYTRHG came in with an amyloid nucleation score of 0.082 ± 0.38. As for LRMVTHMSVYDRNHLSW, the amyloid nucleation score entry was “inactive”. As to RIQCIRLDHFSLSLFYFFTA, the amyloid nucleation score came to 0.636 ± 0.21. Then IWPNRHGLKNVLRDQREATL, with “inactive”. With GRCNLGSMNNWFKLPLKSVR the entry was “inactive”; with YQSTVFGCYTYSRLKCLRSA, “inactive”.

With SIGNCIFYTMAVFQWSTYTL, the amyloid nucleation score entry was “inactive”. As to KSFQGSITILVFSWLINNPR, the amyloid nucleation score result is “inactive”. The substance CLELK showed an amyloid nucleation score of -0.204 ± 1.1. Regarding HIVNLFRLYYIAMWGSVCHV, the amyloid nucleation score result was “inactive”. Consider DQAIVLVNFVSASSVPPKIF, for which the amyloid nucleation score is 0.498 ± 0.25. As to YFTNDQNKQGFHWMGYMSHI, the amyloid nucleation score entry was “inactive”. VYRERPMSKEGRCIEWHNLA: the amyloid nucleation score result is “inactive”. VLLSNNRILYETFL: the amyloid nucleation score entry was “inactive”.

As for ISYNTVRYRYGFVYNRLLPW, the amyloid nucleation score result is “inactive”. With FLLVTSRSEEAPLATETYRL, the amyloid nucleation score entry was “inactive”.

With SIGQHWLGS, the amyloid nucleation score result is “inactive”. As to MMHILNGRSEVAPFYSTPIS, the amyloid nucleation score result was “inactive”. As to WTESWYKYMNKDVSSHCKQS, the amyloid nucleation score entry was “inactive”. As to MYTISVKAMNGWYLSLKVGC, the amyloid nucleation score result is “inactive”. For HELLMVSENVRCDAKSHG, the amyloid nucleation score entry was “inactive”. PAVPLQSNLRRETTFRAGCL: the amyloid nucleation score result was “inactive”. In the case of AASNTAFNYLSTRPIMRWLA, the amyloid nucleation score result was “inactive”.

As for SFEPRSLMYNTNRGI, the amyloid nucleation score entry is “inactive”. As for FNSAHDQAAQVRHLHVNVFL, the amyloid nucleation score came out at 3 ± 0.064. On to MSEFSQCRFKSHTFFVTSNR, for which the amyloid nucleation score entry is “inactive”.

In the case of ASSLMQ, the amyloid nucleation score result was “inactive”. As to AVQYPSVCWNYKSNSMHC, the amyloid nucleation score result was “inactive”.

Consider AAHCYNGVLKGVI, for which the amyloid nucleation score result was “inactive”. Regarding MSGLENVACDYKRELAMKRS, the amyloid nucleation score entry is “inactive”. Take KKVLN: the amyloid nucleation score result was “inactive”. With INCSLENLINKDLWVSSQVC, the amyloid nucleation score result was “inactive”.

For ELVGQF, the amyloid nucleation score result was “inactive”.

For TARYMLSKYVTLCNDVSI, the amyloid nucleation score was 0.984 ± 0.12. As to MDVARRMFLISYIFIIFVVR, the amyloid nucleation score result is “inactive”. As to SWFWVHHEFVFKALGTLIRT, the amyloid nucleation score entry was “inactive”. With YFMVRWYCAGLDILCGLQEK the entry was “inactive”; with YKQCN, “inactive”. Regarding YWSNSYGIECCRLVQQAPTE, the amyloid nucleation score is -0.132 ± 0.33. For the substance RDIVVNRLVRACSLGFLCLG, the amyloid nucleation score is -0.792 ± 1.4. HSTTSLWSVVSVQSKTFMLK: the amyloid nucleation score entry is “inactive”. With NSGIFFLVMTSKLNAVLCLA the entry was “inactive”.

Take SNNLEGVLSVCDFVF: the amyloid nucleation score entry was “inactive”.

Turning to RVSNGPIIYRRMHAAGDNLT, the amyloid nucleation score result was “inactive”. Then YSWYEDPWWGERFWP, with “inactive”; and TSSWYFILDVHCGSEGNSEA, with 0.438 ± 0.28. For the substance NKTDCETC, the amyloid nucleation score result is “inactive”.

With IEVVYNLFWSRTFGAFVTKV, the amyloid nucleation score entry was “inactive”. Turning to MMFDYLLLRGHNAQIQLWWY, the amyloid nucleation score entry is “inactive”.

Take AYLSSTSANF: the amyloid nucleation score entry is “inactive”. Turning to ICLCLHCIYSRSITSAVLSA, the amyloid nucleation score entry is “inactive”. With YSNSELSGECRLLHKITSD the entry was “inactive”; with TQDRYAISIRLVSTQLKLMS, “inactive”.

For the substance YRHPTIECWSKMRCALVVCT, the amyloid nucleation score entry is “inactive”. Take YMLWDDMVEKYHCLSQRLGR: the amyloid nucleation score result was “inactive”. As to LQCLNQVRSRLVVLLLIFNV, the amyloid nucleation score result was “inactive”. In turn, CLVNNLCVLR displayed an amyloid nucleation score of 0.047 ± 0.55. For LSMFTFCRYPGCQRLDRKPY, the amyloid nucleation score amounted to 1.23 ± 0.1.

Take RSGFAKMNAILLYFASFLL: the amyloid nucleation score result was “inactive”. On to RAWNWWGFVTFPERLMCSHT, for which the amyloid nucleation score result is “inactive”. As to ACSRKISSIVATSRLVSTSG, the amyloid nucleation score entry is “inactive”. As to SMNNWGFDNICSQVCPLAAM, the amyloid nucleation score result is “inactive”. The substance WYVFMCNGSWFLRNCRNLSY had an amyloid nucleation score of 0.144 ± 0.78.

Regarding ASYLNYSFVKIETAVSSNPC, the amyloid nucleation score amounted to 0.609 ± 0.11. For NAQDPIGSGYVQ, the amyloid nucleation score entry is “inactive”. With SKRARVKWSTQPHFVRYLLE, the amyloid nucleation score result is “inactive”.

In the case of GFTLHHLTACVIGTCVFFSP, the amyloid nucleation score was determined as 1.93 ± 0.1. As for PLHRSE, the amyloid nucleation score entry was “inactive”.

Take STVFDFSTLNFFCKSCSIFW: the amyloid nucleation score was 2.22 ± 0.087. With NCRVCCRYVNSSPDV the figure was -0.974 ± 1.7; with LFYAVSFQRYQANVFVVRGD, “inactive”; with LAAIDERPS, “inactive”. Then IMIYSQPKGEASCFGCFRLG, with 0.702 ± 0.17; and EMNLLFIVDAIELCPVLQAR, with “inactive”; and SYMLTFK, with “inactive”. For the substance RDSRRETKTNIWIVRYTLW, the amyloid nucleation score result is “inactive”. Turning to RRGNDRKRLWAVNLDTGNFL, the amyloid nucleation score result is “inactive”.

(Values after the supplement of paper PMC12042874.)
